Experimental data as given in article PMC10371147.

What was measured:
[1] = target: mTmc1 tagged with mRuby3 (mTmc1-mRuby3) (mouse) (UniProt Q8R4P5)
[2] = target: mTmc1 tagged with mRuby3 (mTmc1-mRuby3) (mouse) (UniProt Q8R4P5); test: FRET or BRET; acceptor photobleaching in living N2A cells co-transfected with mPz1-mClover3 (donor) and mTmc1-mRuby3 (acceptor), Tyrode's solution pH 7.4, region of the surface membrane

Sequence of mTmc1 tagged with mRuby3 (mTmc1-mRuby3) (mouse) (Q8R4P5 whole entry): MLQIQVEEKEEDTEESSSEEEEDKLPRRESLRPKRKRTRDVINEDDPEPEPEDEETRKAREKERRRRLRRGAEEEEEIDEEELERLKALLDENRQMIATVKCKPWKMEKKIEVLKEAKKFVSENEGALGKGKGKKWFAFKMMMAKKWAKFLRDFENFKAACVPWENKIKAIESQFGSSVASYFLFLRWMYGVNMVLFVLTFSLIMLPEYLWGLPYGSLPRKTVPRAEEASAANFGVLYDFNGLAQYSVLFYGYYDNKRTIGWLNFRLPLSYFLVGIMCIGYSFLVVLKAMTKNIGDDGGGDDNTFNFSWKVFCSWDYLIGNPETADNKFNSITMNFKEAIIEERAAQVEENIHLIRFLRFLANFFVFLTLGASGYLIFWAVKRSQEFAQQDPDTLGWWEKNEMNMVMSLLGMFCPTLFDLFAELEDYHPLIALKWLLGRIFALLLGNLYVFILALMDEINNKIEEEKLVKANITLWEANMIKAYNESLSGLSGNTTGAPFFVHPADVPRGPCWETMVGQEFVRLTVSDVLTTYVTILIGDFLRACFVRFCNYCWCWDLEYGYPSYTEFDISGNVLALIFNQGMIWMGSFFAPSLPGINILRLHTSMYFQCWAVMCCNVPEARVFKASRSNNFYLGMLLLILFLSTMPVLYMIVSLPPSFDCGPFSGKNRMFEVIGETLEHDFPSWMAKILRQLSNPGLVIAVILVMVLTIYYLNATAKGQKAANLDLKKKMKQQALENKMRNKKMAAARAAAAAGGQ

block by dihydrostreptomycin (DHS) of the mechanically activated current in N2A cells co-transfected with Pz1 and Tmc1, against Pz1 alone [1]: 1000 fold
FRET efficiency (E) [2]: 0.1
Substance: mouse Pz1 tagged with mClover3 (mPz1-mClover3), E2JF22 1-2547
